Measured values published in patent publication US20240425569A1 (VISTERRA, published 2024).
Where two headings read alike, the source gives them in different places.

Key:
[1] = biological target: T1, ED3-DV4/H241/Phil56 (EDIII of DENV-4 strain H241) (dengue virus serotype DENV-4, strain …, UniProt Q58HT7 572-679)
[2] = biological target: T2, New Caledonia/2009 (serotype IV EDIII); experiment: Kd table, method not stated; Ag DENV-4 NC
T2 construct: also called ED3-DV4/NewCal09; DENV-4 NC
T2 E protein domain III (EDIII): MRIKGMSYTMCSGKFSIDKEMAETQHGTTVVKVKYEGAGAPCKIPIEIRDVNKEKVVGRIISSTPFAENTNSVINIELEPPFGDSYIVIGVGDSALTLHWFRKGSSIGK

[3] = biological target: T3, New Guinea/1944 (NGC)* (serotype II EDIII) (Dengue virus 2); experiment: Kd table, method not stated; Ag DENV-2 NGC
T3 construct: isolated EDIII protein; also called EDIII of DENV-2 NGC
T3 sequence (P14340 578-673): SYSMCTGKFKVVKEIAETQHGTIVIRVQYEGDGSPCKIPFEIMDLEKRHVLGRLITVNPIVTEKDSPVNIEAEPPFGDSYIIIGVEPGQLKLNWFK

[4] = biological target: T4, Singapore/2010 (serotype IV EDIII); experiment: Kd table, method not stated; Ag DENV-4 Sing
T4 construct: also called ED3-DV4/Sing10; DENV-4 Sing
T4 E protein domain III (EDIII): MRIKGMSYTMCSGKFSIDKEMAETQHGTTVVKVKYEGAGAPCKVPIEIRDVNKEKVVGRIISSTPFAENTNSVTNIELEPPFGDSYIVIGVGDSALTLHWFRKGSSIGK

[5] = biological target: T5, Mexico/2007 (serotype I EDIII)
T5 construct: also called ED3-DV1/Mexico07
T5 E protein domain III (EDIII): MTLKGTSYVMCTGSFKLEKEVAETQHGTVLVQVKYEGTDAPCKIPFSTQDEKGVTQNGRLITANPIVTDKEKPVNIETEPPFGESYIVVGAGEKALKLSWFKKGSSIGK

[6] = biological target: T6, Hawaii/1944* (serotype I EDIII) (Dengue virus 1); experiment: SPR; row Hawaii/1944*, serotype I, genotype I
T6 construct: isolated EDIII protein; also called EDIII of DENV-1 Hawaii/1944

[7] = biological target: T7, Vietnam/2008 (serotype I EDIII)
T7 construct: also called ED3-DV1/Viet08
T7 E protein domain III (EDIII): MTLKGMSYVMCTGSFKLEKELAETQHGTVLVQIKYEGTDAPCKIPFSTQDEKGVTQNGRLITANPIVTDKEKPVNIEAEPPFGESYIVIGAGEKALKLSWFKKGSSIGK

[8] = biological target: T5, Mexico/2007 (serotype I EDIII)
[9] = biological target: T7, Vietnam/2008 (serotype I EDIII)
[10] = biological target: T8, Cambodia/2008 (serotype III EDIII); experiment: SPR; row Cambodia/2008, serotype III, genotype II
T8 construct: Genotype II; also called ED3-DV3/Cambodia08
T8 E protein domain III (EDIII): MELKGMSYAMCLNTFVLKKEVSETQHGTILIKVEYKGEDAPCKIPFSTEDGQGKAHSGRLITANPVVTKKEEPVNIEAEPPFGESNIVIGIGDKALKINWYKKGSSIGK

[11] = biological target: T9, Singapore/2009 (serotype III EDIII)
T9 construct: also called ED3-DV3/Sing09; DENV-3 Sing
T9 E protein domain III (EDIII): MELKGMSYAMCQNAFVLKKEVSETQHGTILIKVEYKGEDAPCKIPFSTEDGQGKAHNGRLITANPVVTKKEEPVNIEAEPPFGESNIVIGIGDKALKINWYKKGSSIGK

[12] = biological target: T10, Thailand/1997 (serotype IV EDIII); experiment: ELISA; row Thailand/1997, serotype IV, genotype III
T10 E protein domain III (EDIII): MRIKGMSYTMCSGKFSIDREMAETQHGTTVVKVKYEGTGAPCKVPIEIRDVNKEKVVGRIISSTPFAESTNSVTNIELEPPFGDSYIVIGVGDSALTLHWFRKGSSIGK

[13] = biological target: T11, Peru/1995 (serotype II EDIII); experiment: ELISA; row Peru/1995, serotype II, genotype American
T11 construct: also called ED3-DV2/Peru95; DENV-2 Peru

[14] = biological target: T12, Puerto Rico/1977 (serotype III EDIII); experiment: SPR; row Puerto Rico/1977, serotype III, genotype IV
T12 construct: Genotype IV; also called ED3-DV3/PuertoRico77
T12 E protein domain III (EDIII): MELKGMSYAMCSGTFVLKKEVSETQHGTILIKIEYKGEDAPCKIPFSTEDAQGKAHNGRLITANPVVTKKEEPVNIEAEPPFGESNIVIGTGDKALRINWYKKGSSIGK

[15] = biological target: T2, New Caledonia/2009 (serotype IV EDIII); experiment: ELISA; row New Caledonia/2009, serotype IV, genotype IIb
[16] = biological target: T1, ED3-DV4/H241/Phil56 (EDIII of DENV-4 …); experiment: ELISA; row Philippines/1956 (H241)*, serotype IV, genotype I
[17] = biological target: T13, EDIII-DV1 (E protein domain III of dengue virus serotype DV-1) (dengue virus serotype DV-1, UniProt P17763 573-680)
T13 construct: also called DENV-1; EDIII of DV-1
T13 chain: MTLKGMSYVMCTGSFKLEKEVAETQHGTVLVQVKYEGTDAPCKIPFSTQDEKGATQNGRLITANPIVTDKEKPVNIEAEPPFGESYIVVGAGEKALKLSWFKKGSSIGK

[18] = biological target: T14, EDIII-DV3 (E protein domain III of dengue virus serotype DV-3) (dengue virus serotype DV-3, UniProt P27915 571-678)
T14 construct: also called DENV-3; EDIII of DV-3
T14 sequence (P27915 571-678, tags left off): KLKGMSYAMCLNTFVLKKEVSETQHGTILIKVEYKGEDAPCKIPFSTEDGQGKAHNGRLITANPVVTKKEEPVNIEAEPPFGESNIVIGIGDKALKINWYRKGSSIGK

B1: antibody D88 (antibody, V domains shown)
VH: QVQLVQSGAEVKKPGASVKVSCKAGFNIKDVYMSWVRQAPEQGLEWMGRIDPENGDTKYDPKLQGRVTMTADTSTNTAYMELRSLRSDDTAVYYCARGWEGFAYWGQGTLVTVSS
VL: DIVMTQSPASLAVSLGERATISCRASENVDKYGNSFMHWYQQKPGQPPKLLIYRASELQWGVPDRFSGSGSGTDFTLTISSLQAEDVAVYYCQRSNEVPWTFGQGTKLEIK
notes: also called mAb D88
B1 gave a Kd [1] of 100 nM, a Kd [2] of 10.8 nM and a Kd [3] of under 0.1 nM. It also gave a Kd [4] of 8.4 nM, a Kd [5] of 0.071 nM and a Kd [6] of 0.041 nM. The Kd [7] was 0.031 nM, the Kd [8] was under 0.1 nM and the Kd [9] was under 0.1 nM. The Kd [10] was 2.47 nM, the Kd [11] was 0.35 nM and the Kd [12] was 612 nM. For the same binder, the Kd [13] was under 0.1 nM, the Kd [14] was 1.4 nM and the Kd [15] was 10.8 nM. For the same binder, the Kd [16] was 113 nM, the Kd [17] was 0.041 nM and the Kd [18] was 1 nM.
